Data on 6 molecules can be found in patent US20230050038A1 (WASHINGTON UNIVERSITY, published 2023).

B1: Clone-01, PDGF-B variant displayed on the yeast surface (ligand)
chain: SLGSLTIAEPAMIAECKTRTELFRISRNLIDRTNANFLVWPPCVEVQRCSGCCNNRYVQCRPTQVQLRPVQVRKIEFVRKKPIFKKATVTLEDHLACRCETVAA
notes: not shown: Aga2p fusion partner, glycine-rich linkers and c-myc tag
B2: Clone-02, PDGF-B variant displayed on the yeast surface (ligand)
chain: SLGSLTIAEPAMIAECNTRTEVFRISRNLIDRTNANFLVWPPCVEVQRCSGCCNNRNVQCRPTQVQLRPVQVRKIEFVRKKPIFKKATVTLEDHLACRCEKVAA
notes: as for B1
B3: Clone-08, PDGF-B variant displayed on the yeast surface (ligand)
chain: SLGSLTIAEPAMIAECKTRTELFRISRNLIDRTNANFLVWPPCVEVQRCSGCCNNRYVQCRPTQVQLRPVQVRKIEIVRKKPIFKKATVTLEDHLACRCETVAA
notes: as for B1
B4: Clone-07, PDGF-B variant displayed on the yeast surface (ligand)
chain: SLGSLTIAEPAMIAECKTRTEVFEISRNLIDRTNANFLVWPPCVEVQRCSGCCNNRNVQCRPTQVQLRPVQVRKIEFVRKKPIFKKATVTLEDHLACKCETVAA
notes: as for B1
B5: Clone-03, PDGF-B variant displayed on the yeast surface (ligand)
chain: SLGSLTIAEPAMIAECKTRTELFRISRNLIDRTNANFLVWPPCVEVQRCSGCCNNRYVQCRPTQVQLRPVQVRKIEFVRKKPIFKKATVTLEDHLACKCEKVAA
notes: as for B1
B6: PDGF-B-cons (consensus sequence), displayed on the yeast surface (ligand)
chain: SLGSLTIAEPAMIAECKTRTEVFRISRNLIDRTNANFLVWPPCVEVQRCSGCCNNRYVQCRPTQVQLRPVQVRKIEFVRKKPIFKKATVTLEDHLACRCETVAA
notes: Consensus of the isolated clones, tested on the yeast surface; also called PDGF-BB-cons; not shown: Aga2p fusion partner, glycine-rich linkers and c-myc tag

T1 sequence (P09619 33-532 limits assumed): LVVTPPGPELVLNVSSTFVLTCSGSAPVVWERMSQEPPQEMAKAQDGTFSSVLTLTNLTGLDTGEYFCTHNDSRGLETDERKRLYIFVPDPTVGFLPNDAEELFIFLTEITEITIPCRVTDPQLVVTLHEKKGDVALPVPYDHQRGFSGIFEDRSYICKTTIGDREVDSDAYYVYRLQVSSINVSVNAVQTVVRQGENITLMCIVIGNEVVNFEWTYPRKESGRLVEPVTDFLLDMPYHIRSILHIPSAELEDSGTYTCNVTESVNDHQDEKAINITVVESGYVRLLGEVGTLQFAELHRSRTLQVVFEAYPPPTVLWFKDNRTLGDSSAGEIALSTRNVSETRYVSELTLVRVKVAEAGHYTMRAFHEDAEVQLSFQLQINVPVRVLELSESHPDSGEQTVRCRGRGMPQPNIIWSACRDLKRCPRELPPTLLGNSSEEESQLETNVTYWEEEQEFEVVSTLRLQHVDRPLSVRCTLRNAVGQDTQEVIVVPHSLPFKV

The first test concerns the target T1, PDGFRβ soluble extracellular domain (UniProt P09619 33-532, limits assumed, fluorescently labeled).
T1 construct: extracellular domain; also called PDGFRβ ectodomain; soluble PDGFRβ
The test can be described thus: combinatorial yeast display library enriched by FACS for high binding signal to PDGFRβ ectodomain. In general terms: Flow cytometry measures light scatter and fluorescence of single cells or particles in a stream.
Consider B1, for which the binding result was “binds”.

On to B2, for which the binding result was “binds”.

For the molecule B3, the binding result is “binds”.

As for B4, the binding result was “binds”.

For the molecule B5, the binding result was “binds”.

For another test, the target named is T1, PDGFRβ soluble extracellular domain. The test can be described thus: yeast surface display, flow cytometry with soluble PDGFRβ.
B6: the binding result is “binds”.
